{"source": "paper PMC7145629", "binders": {"B1": {"name": "hemiDNA 36-mer (dsDNA)", "DNA 1": "GACGACGACGACGACGACGACGACGACGACGACGAC", "DNA 2": "GTCGTCGTCGTCGTCGTCGTCGTCGTCGTCGTCGTC", "modifications": "5-methylcytosine at every C of strand 2"}}, "assay_in_all_cases": "EMSA", "key": {"[1]": {"target": "T1, DNMT1 (BAH1-BAH2-MTase fragment) (human, UniProt P26358 728-1600)", "T1 sequence (P26358 728-1600)": "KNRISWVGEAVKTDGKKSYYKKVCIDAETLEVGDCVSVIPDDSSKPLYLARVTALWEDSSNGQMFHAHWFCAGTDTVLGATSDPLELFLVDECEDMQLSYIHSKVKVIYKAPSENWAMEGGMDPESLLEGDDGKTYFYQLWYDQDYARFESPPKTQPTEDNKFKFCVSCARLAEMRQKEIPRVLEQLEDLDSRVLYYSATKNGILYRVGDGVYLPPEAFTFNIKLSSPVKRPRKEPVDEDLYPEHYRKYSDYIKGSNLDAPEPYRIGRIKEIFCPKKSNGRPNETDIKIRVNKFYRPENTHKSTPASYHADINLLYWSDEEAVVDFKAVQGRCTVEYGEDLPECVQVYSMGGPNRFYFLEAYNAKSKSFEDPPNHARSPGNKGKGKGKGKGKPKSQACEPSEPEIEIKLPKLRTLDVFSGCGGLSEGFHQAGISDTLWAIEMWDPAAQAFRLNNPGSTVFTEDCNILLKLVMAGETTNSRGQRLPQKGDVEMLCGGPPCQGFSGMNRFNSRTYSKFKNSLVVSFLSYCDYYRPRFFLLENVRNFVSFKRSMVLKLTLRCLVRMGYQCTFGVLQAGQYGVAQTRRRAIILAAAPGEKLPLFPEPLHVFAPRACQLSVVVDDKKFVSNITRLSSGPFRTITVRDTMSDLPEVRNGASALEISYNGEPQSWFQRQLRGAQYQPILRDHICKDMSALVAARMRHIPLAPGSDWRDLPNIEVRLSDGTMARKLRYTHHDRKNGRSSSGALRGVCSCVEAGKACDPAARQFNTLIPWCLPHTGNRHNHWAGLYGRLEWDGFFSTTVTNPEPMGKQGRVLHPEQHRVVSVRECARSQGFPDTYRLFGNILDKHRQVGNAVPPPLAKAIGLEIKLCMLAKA"}, "[2]": {"target": "T1, DNMT1 (BAH1-BAH2-MTase fragment)", "remark": "listed apart in the source"}, "[3]": {"target": "T1, DNMT1 (BAH1-BAH2-MTase fragment)", "remark": "listed apart in the source"}, "[4]": {"target": "T1, DNMT1 (BAH1-BAH2-MTase fragment)", "remark": "listed apart in the source"}, "[5]": {"target": "DNMT3A;DNMT3L (human;human, UniProt Q9Y6K1;Q9UJW3 628-912;178-386, |)", "sequence (Q9Y6K1 628-912, chain 1 of 2)": "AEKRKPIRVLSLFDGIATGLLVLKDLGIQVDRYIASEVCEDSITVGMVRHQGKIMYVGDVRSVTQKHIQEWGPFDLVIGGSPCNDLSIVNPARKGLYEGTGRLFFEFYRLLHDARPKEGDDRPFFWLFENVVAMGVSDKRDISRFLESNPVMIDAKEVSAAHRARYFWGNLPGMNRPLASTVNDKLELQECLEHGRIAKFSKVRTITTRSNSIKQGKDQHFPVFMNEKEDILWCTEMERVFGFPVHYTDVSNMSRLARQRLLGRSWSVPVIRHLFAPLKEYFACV", "sequence (Q9UJW3 178-386, chain 2 of 2)": "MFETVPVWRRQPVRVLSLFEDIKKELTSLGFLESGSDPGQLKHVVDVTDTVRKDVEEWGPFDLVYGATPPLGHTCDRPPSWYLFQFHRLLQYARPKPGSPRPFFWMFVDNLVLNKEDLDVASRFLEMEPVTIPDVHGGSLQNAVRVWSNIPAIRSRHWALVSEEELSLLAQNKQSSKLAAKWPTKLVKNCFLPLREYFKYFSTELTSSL"}, "[6]": {"target": "DNMT3B;DNMT3L (human;human, UniProt Q9UBC3;Q9UJW3 562-853;178-386, |)", "sequence (Q9UJW3 178-386, chain 2 of 2, other chains not shown)": "as the sequence (Q9UJW3 178-386, chain 2 of 2) above"}, "[7]": {"target": "T1, DNMT1 (BAH1-BAH2-MTase fragment)", "remark": "listed apart in the source"}}, "note": "Read-outs that look alike come from different tables or passages of the source.", "data": [{"binder": "ATAGAAGTGGGGGTGAGTCCACTTCTATG (ssDNA)", "note": "[Steml]", "values": [{"measurement": "binding result", "setting": "[1]", "value": "binds"}]}, {"binder": "CGTCAGATGTGCGAGTGACATCTCAACGG (ssDNA)", "note": "[Modified ssDNA #5]", "values": [{"measurement": "binding result", "setting": "[2]", "value": "no binding"}]}, {"binder": "CGTAGATGTGCGAGTGACATCTACGG (ssDNA)", "note": "[Apt. #8]", "values": [{"measurement": "binding result", "setting": "[2]", "value": "binds"}]}, {"binder": "AGATCTGGGGGTGAGTCCACTTCTG (ssDNA)", "note": "[Bulge2]", "values": [{"measurement": "binding result", "setting": "[1]", "value": "binds"}]}, {"binder": "CCCGGGACGCGGGUCCGGGACAG (ssRNA)", "note": "[R2 RNA]", "values": [{"measurement": "binding signal", "setting": "[3]", "value": "~4 fold less binding than Apt. #9"}]}, {"binder": "CGTAGATGTGCTGACATCTACGG (ssDNA)", "note": "[Modified ssDNA #6]", "values": [{"measurement": "binding result", "setting": "[2]", "value": "no binding"}]}, {"binder": "B1", "values": [{"measurement": "binding signal", "setting": "[4]", "value": "~4", "unit": "fold weaker than Apt. #9"}]}, {"binder": "AGAAGTGGGGGTGAGTCCACTTCTG (ssDNA)", "note": "[Apt. #9]", "values": [{"measurement": "binding result", "setting": "[5]", "value": "no binding"}, {"measurement": "Kd", "setting": "[2]", "value": "770 ± 110", "unit": "nM"}, {"measurement": "binding result", "setting": "[6]", "value": "no binding"}]}, {"binder": "CCCATGCGTAGGGTCTGATGCCTATGCGTG (ssDNA)", "note": "[Apt. #10]", "values": [{"measurement": "binding result", "setting": "[2]", "value": "binds"}]}, {"binder": "TGCGAGTGACATCTCAACGG (ssDNA)", "note": "[non-binding ssDNA #12]", "values": [{"measurement": "binding result", "setting": "[2]", "value": "no binding"}]}, {"binder": "CAGATGTGCGAGTGACATCTC (ssDNA)", "note": "[Modified ssDNA #7]", "values": [{"measurement": "binding result", "setting": "[7]", "value": "no binding"}]}, {"binder": "AGATGTGCGAGTGACATCTCAACGGCCTAT (ssDNA)", "note": "[Apt. #11]", "values": [{"measurement": "binding result", "setting": "[2]", "value": "binds"}]}]}
